According to paper PMC10403363, “Mechanism of ribosome-associated mRNA degradation during tubulin autoregulation” (Molecular Cell, 2023):

Tests used:
[1] = target: T1, human SCAPER-FLAG (recombinant, purified) (human, UniProt Q9BY12 1-1400); experiment: pull-down; 100 nM SCAPER-FLAG and 150 nM Strep-TTC5 in IP buffer (50 mM HEPES pH 7.4, 100 mM KAc, 5 mM MgAc2, 1 mM DTT, 0.01% digitonin), 4°C; Streptactin magnetic beads; Coomassie; conditions: both partners purified
T1 construct: SCAPER, human cDNA from Genscript; construct names (aa351-1400) imply 1400 residues; also called S-phase cyclin A associated protein residing in the ER; source: Expi293 cells, transfected, purified (anti-FLAG resin, 3xFLAG peptide elution); not shown: FLAG, C-terminal, kept
T1 sequence: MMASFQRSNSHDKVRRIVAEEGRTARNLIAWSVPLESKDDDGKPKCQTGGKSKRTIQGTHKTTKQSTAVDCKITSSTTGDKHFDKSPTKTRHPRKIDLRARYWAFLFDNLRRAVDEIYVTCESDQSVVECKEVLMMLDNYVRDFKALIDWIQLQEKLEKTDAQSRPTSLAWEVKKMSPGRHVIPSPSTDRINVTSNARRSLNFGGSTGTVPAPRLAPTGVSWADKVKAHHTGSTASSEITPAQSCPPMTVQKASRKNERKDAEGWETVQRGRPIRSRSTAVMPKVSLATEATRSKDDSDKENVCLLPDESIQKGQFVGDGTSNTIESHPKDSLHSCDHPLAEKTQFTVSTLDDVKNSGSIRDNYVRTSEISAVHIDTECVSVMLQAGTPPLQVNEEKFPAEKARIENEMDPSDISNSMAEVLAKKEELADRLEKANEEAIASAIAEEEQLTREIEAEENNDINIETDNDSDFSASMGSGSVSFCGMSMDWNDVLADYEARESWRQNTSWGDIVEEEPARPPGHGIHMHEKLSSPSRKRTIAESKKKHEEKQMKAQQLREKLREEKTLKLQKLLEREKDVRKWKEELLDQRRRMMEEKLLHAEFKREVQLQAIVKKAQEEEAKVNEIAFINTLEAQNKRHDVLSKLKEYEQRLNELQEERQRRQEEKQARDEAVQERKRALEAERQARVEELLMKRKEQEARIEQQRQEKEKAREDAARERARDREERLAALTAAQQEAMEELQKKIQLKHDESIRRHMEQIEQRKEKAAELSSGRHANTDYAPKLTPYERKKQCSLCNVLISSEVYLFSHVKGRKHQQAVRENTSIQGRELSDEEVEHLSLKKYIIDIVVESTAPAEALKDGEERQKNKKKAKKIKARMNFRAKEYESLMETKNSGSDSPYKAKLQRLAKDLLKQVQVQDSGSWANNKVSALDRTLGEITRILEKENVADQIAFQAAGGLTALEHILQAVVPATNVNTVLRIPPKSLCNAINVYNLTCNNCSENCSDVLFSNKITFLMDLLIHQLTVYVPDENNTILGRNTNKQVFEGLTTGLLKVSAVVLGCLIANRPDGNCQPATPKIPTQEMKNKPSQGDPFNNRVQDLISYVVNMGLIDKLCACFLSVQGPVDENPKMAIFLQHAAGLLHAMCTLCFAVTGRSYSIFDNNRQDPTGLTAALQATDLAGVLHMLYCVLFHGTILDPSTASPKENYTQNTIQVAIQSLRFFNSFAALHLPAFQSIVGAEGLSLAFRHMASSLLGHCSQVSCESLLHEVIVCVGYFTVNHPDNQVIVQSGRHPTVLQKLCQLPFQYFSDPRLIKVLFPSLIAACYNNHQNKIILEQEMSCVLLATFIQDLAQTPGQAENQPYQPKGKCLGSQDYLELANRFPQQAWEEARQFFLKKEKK

[2] = target: T2, human FLAG-SCAPER (recombinant, purified) (human, UniProt Q9BY12 1-1400); experiment: cryo-EM structure; β-tubulin RNCs from rabbit reticulocyte lysate with recombinant Strep-TTC5 and FLAG-SCAPER, affinity purified via TTC5; SCAPER with TTC5; conditions: both partners purified
T2 construct: SCAPER, human cDNA from Genscript recloned with an N-terminal FLAG tag; construct names (aa351-1400) imply 1400 residues; In the cryo-EM map only the part from residue 859 on (CTD) was resolved; also called recombinant SCAPER; source: Expi293 cells, transfected, purified (anti-FLAG resin, 3xFLAG peptide elution); not shown: FLAG, N-terminal, kept
T2 sequence: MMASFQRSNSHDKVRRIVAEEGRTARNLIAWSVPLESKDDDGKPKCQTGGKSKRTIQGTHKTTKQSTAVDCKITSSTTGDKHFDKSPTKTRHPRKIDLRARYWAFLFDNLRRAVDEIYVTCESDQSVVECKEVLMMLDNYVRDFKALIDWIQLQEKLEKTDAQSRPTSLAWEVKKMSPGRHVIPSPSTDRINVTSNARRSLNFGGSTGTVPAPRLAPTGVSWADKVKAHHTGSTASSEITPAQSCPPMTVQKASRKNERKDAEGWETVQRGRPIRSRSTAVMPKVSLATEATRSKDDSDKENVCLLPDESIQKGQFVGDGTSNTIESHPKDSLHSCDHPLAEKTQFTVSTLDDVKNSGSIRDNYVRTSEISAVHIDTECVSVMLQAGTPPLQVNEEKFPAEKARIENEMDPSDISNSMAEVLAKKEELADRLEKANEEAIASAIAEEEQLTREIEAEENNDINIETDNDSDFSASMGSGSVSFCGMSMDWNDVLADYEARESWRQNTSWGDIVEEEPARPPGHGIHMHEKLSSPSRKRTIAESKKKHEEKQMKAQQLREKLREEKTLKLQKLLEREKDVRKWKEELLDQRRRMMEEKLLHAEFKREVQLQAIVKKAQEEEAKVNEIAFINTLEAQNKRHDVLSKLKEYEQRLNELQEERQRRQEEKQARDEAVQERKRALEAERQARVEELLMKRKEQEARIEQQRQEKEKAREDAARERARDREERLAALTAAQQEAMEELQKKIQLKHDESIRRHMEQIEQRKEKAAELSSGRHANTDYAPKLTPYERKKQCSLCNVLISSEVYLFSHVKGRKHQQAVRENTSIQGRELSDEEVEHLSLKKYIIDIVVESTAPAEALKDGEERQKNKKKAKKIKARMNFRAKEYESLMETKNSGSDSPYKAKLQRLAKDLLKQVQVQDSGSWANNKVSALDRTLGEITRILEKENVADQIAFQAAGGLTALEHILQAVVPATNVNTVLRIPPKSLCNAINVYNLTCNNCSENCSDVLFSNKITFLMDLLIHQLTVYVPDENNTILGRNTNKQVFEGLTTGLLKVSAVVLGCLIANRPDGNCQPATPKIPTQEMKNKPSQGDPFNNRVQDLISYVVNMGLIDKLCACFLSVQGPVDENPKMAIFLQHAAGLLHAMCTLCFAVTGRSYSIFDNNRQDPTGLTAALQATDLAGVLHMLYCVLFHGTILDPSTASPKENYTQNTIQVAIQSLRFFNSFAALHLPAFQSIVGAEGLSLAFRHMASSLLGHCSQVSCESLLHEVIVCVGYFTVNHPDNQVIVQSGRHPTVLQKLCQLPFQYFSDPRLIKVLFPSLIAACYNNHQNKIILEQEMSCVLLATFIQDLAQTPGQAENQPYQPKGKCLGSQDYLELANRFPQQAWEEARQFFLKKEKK

binding result [1]: binds
binding result [2]: binds
B1: human 6xHis-TEV-Twin-Strep-TTC5 (natural protein)
chain: MMADEEEEVKPILQKLQELVDQLYSFRDCYFETHSVEDAGRKQQDVQKEMEKTLQQMEEVVGSVQGKAQVLMLTGKALNVTPDYSPKAEELLSKAVKLEPELVEAWNQLGEVYWKKGDVAAAHTCFSGALTHCRNKVSLQNLSMVLRQLRTDTEDEHSHHVMDSVRQAKLAVQMDVHDGRSWYILGNSYLSLYFSTGQNPKISQQALSAYAQAEKVDRKASSNPDLHLNRATLHKYEESYGEALEGFSRAAALDPAWPEPRQREQQLLEFLDRLTSLLESKGKVKTKKLQSMLGSLRPAHLGPCSDGHYQSASGQKVTLELKPLSTLQPGVNSGAVILGKVVFSLTTEEKVPFTFGLVDSDGPCYAVMVYNIVQSWGVLIGDSVAIPEPNLRLHRIQHKGKDYSFSSVRVETPLLLVVNGKPQGSSSQAVATVASRPQCE
notes: tetratricopeptide repeat protein 5 (TTC5), human; TEV site between the 6xHis and the Twin-Strep tag; also called tetratricopeptide repeat protein 5; source: E. coli BL21(DE3), purified (Ni-NTA, Streptactin Sepharose); not shown: Twin-Strep, N-terminal, kept
